Laboratory results as given in US20250093368A1 (BEIJING INSTITUTE OF HEART LUNG AND BLOOD VESSEL DISEASES, published 2025).

B1: Flag tag - S100A8 (expression product from plasmid 1; also the S100A8 chain co-expressed from plasmid 5) (other)
chain: DYKDDDDKLTELEKALNSIIDVYHKYSLIKGNFHAVYRDDLKKLLETECPQYIRKKGADVWFKELDINTDGAVNFQEFLILVIKMGVAAHKKSHEESHKE

Columns and labels:
[1] = biological target: the molecule itself; test: SDS-PAGE of Flag-purified protein, homodimer band at 30 KDa
Text: (§1) (8) SDS-PAGE gel electrophoresis: the supernatant obtained after lysis and the purified protein were mixed with 6×Loading Buffer according to a volume ratio of 5:1 for sample preparation; and the prepared sample was subjected to SDS-PAGE gel electrophoresis together with bovine serum albumin (BSA, purchased from BioFroxx, Cat. No. 4240GR025) and Marker, wherein plasmid 1 and mutant plasmid 1 were the final samples purified by Flag-Tag, plasmid 2 and mutant plasmid 2 were the final samples purified by His-Tag, and plasmid 3 and plasmid 4 were the final samples purified by His-Tag and Flag-Tag. […] In panel C, the “Supernatant” refers to the supernatant obtained after centrifugation during first lysis, and the “Supernatant 2” refers to the supernatant obtained by performing second lysis treatment on the precipitate obtained after first lysis and centrifugation and then performing centrifugation.

[2] = biological target: T1, S100A8 protein in patient sera (human, UniProt P05109 1-93); test: Dot Blot, B cell supernatant on patient sera
T1 construct: Native serum protein; also called S100A8 signal in patient serum
T1 sequence (looked up): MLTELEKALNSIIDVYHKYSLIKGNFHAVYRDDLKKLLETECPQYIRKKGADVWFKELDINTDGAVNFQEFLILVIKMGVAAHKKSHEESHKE

[3] = biological target: T2, commercial S100A8/S100A9 Heterodimer (R&D) heterodimer protein (UniProt P05109 1-93; P06702 2-114, limits assumed); test: ELISA, LEM supernatant, heterodimer coated at 1 µg/mL
T2 construct: Bought, purity >95%; also called S100A8/S100A9 heterodimer protein standard; commercial S100A8/S100A9 protein
T2 sequence (looked up) 1: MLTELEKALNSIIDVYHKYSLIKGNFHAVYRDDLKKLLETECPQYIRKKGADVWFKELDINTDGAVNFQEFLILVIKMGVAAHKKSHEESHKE
T2 sequence (looked up) 2: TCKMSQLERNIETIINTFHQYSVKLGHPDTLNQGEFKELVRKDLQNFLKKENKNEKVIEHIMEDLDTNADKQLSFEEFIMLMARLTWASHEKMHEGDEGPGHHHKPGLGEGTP
Text: The ELISA reaction conditions were as follows: [0196]

[4] = biological target: T3, S100A8 recombinant protein (pET-28a-S100A8 (1-93 aa) expressed protein) (human, UniProt P05109 1-93); test: ELISA, B cell supernatant on expressed S100A8 antigen; positive = OD greater than 0.7
T3 construct: Immunogen and ELISA screening antigen, expressed from pET-28a; also called S100A8 antigen; expressed S100A8 antigen
T3 sequence: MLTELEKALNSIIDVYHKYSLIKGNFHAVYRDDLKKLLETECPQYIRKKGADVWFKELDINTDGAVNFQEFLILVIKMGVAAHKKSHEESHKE

[5] = biological target: T4, commercial S100A8 protein (ab167749, Recombinant human MRP8 protein) (human, UniProt P05109 1-93); test: ELISA, B cell supernatant on commercial S100A8 protein ab167749; positive = OD greater than 0.7
T4 construct: Bought; also called commercial S100A8 antigen
T4 sequence (looked up): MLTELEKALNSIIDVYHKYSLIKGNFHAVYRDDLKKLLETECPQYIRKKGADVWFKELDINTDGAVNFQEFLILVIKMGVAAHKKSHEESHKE

[6] = biological target: T5, S100A8/S100A9-1 recombinant protein (expression product from plasmid 5) (human, UniProt P05109 2-93; P06702 1-114); test: sandwich ELISA, 5H10 coated at 0.5 µg/mL, 7C4-HRP detecting
T5 construct: also called S100A8/S100A9-1 heterodimer; S100A8/S100A9-1 (S100A9 mutant) heterodimer; not shown: T7-tag
T5 chain 1: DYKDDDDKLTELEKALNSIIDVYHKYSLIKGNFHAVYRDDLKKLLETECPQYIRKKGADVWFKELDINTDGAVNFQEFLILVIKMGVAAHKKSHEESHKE
T5 chain 2: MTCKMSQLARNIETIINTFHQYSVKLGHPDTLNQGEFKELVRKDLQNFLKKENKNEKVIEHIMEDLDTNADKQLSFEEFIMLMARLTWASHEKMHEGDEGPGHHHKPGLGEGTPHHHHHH
Method: (1) Experimental steps: [0270] standard: commercial R&D S100A8/S100A9 heterodimer protein, 2-fold gradient dilution from 40 ng/mL, with a total of 8 concentrations, lower limit of 0.625 ng, and boundary value of 40-0.625; [0271] reaction system: 96-well plate reaction system, laboratory buffer; [0272] coating antibody concentration: 5H10 (anti-S100A8 antibody), 0.5 μg/mL; [0273] detecting antibody concentration: 7C4-HRP (directly labeled), antibody dilution ratio of 1:20000 or 1:10000; [0274] TMB development: dilution ratio being 1:2, and color development time being 15 min.

[7] = biological target: T6, S100A9 protein in patient sera (human, UniProt P06702 2-114, limits assumed); test: Dot Blot, B cell supernatant on patient sera
T6 construct: Native serum protein; also called S100A9 signal in patient serum
T6 sequence (looked up): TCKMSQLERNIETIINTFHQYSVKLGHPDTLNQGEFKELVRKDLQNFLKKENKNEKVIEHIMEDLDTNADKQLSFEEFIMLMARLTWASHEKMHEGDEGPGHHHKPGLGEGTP

[8] = biological target: T7, S100A9 recombinant protein (pET-28a-S100A9 (1-114 aa) expressed protein) (human, UniProt P06702 1-114); test: ELISA, LEM supernatant, antigen coated at 1 µg/mL
T7 construct: Immunogen and ELISA screening antigen, expressed from pET-28a; also called S100A9 antigen; expressed S100A9 antigen
T7 sequence: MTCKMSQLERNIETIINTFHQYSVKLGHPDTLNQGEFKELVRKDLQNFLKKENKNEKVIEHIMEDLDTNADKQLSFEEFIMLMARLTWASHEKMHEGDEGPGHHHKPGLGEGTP
Text: (§2) The ELISA reaction conditions were as follows: [0207]

[9] = biological target: T8, commercial S100A9 protein (ab95909, Recombinant Human S100A9 protein) (human, UniProt P06702 1-114); test: ELISA, LEM supernatant, antigen coated at 1 µg/mL
T8 construct: Bought; also called commercial A9 protein
T8 sequence (looked up): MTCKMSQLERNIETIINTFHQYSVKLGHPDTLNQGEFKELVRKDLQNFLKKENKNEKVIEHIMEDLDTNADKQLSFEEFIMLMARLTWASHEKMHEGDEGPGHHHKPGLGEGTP
Text: as §2

[10] = biological target: the molecule itself; test: SDS-PAGE of His-purified protein, homodimer band at 34 KDa
Text: as §1

[11] = biological target: the molecule itself; test: SDS-PAGE of His-purified protein
Text: as §1

[12] = biological target: the molecule itself; test: SDS-PAGE of protein purified by His-Tag and Flag-Tag
Text: as §1
Except for the synthesized gene of interest (gene of interest S100A8+S100A9-1 in plasmid 5), the construction and expression and purification method for plasmid 5 was the same as that for plasmids 3 and 4, which was not described in detail herein.

[13] = biological target: B1; test: co-expression, purification by His-Tag then Flag-Tag, SDS-PAGE

Measured: binding result

B1
binds: [1]

B2: 3D8 (antibody, V domains shown)
VH: QSVEESGGRLVTPGTPLTLTCTVSGIDLSTNPMGWVRQAPGKGLEWIGIIFADTGEIYYATWAKGRFTISETSSTTVDLKITSPTAEDTATYFCVRGSPSSANIWGPGTLVTVSS
VL: AAVLTQTPSPVSAAVGGTVTISCQSSQSVYNNNWLGWYQQKPGQPPKLLIYRASTLASGVPSRFKGSGSGTQFTFTISDLECDDAATYYCAGTYRRNSDNGFGGGTEVVVKG
notes: Rabbit monoclonal IgG against S100A8 (rabbit E15229); Biotin-labeled when used as detecting antibody
binds: [2] | [3] | [4] | [5]

B3: 5H10 (antibody, V domains shown)
VH: QSVEESGGRLVTPGTPLTLTCTVSGIDLSTNPMGWVRQAPGKGLEWIGIIFADTGEIYYATWARGRFTISETSSTTVDLKITSPTAEDTATYFCVRGSPSSANIWGPGTLVTVSS
VL: AAVLTQTPSPVSAAVGGTVTISCQSSQSVYNNNWLGWYQQKPGQPPKLLIYRASTLASGVSSRFKGSGSGTQFTLTISGLECDDAATYYCAGTYRRNSDNGFGGGTEVVVKG
notes: Rabbit monoclonal IgG against S100A8 (rabbit E15229); Tested as B cell supernatant, LEM supernatant and purified recombinant antibody; biotin-labeled when used as detecting antibody; also called anti-S100A8 monoclonal antibody 5H10
binds: [2] | [3] | [6] | [4] | [5]

B4: 2C2 (antibody, V domains shown)
VH: QSVEESGGRLVTPGGSLTLTCTVSGFSLSSYFMIWVRQAPGKGLEYIGIHSDTGSTDYASWAKGRFTISKTSTTVDLKMTSLTASDTATYFCARDGGNDAYYYFNIWGPGTLVTVSS
VL: AYDMTQTPASVEVAVGGTVTINCQASQSISTALAWYQQKPGQPPKPLIYEASKLASGVPSRFKGSGSGTEFILTISDLECADAATYYCQQGASARNIASNVFGGGTEVVVKG
notes: as for B2
binds: [2] | [3] | [4] | [5]

B5: 7C4 (antibody, V domains shown)
VH: QSVEESGGRLVTPGTPLTLTCTVSGIDLSSGWMNWVRQAPGGGLEWIGTINSGGSPYYARWAKGRFTLSTTSTTVDLKITSPTTEDTATYFCGSRDFWGPGTLVTVSS
VL: AQVLTQTASPVSAAVGGTVTINCQASQSVYNNNYLAWYQQKPGQPPKRLIYAASNLASGVSSRFKGSGSGTQFTLTISDLQCDDAATYYCSGGYDCDSADCSVFGGGTEVVVKG
notes: Rabbit monoclonal IgG against S100A9 (rabbit E16675); also called 7C4-HRP; 7C4 (biotin-labeled)
binds: [7] | [8] | [9] | [3] | [6]

B6: 8A11 (antibody, V domains shown)
VH: QSVEESGGRLVTPGTPLTLTCTVSGIDLSSGWMNWVRQAPGKGLEWIGVINSYGRTYYARWAKGRFTISITSTTVDLKITSPTTEDTATYFCGSRDFWGPGTLVTVSS
VL: AQVLTQTASPVSAAVGSTVTINCQASQSVYKNNYLAWYQQKPGQPPKRLIYSASTLASGVSSRFKGSGSGTQFTLTISDVQCDDAATYYCGGGYDCDSADCSVFGGGTEVVVKG
notes: Rabbit monoclonal IgG against S100A9 (rabbit E16675); Biotin-labeled when used as detecting antibody; also called 8A11 (biotin-labeled)
binds: [7] | [8] | [9] | [3]

B7: S100A9 - 6 x His tag (expression product from plasmid 2) (other)
chain: MTCKMSQLERNIETIINTFHQYSVKLGHPDTLNQGEFKELVRKDLQNFLKKENKNEKVIEHIMEDLDTNADKQLSFEEFIMLMARLTWASHEKMHEGDEGPGHHHKPGLGEGTPHHHHHH
notes: pET-28a, BamHI/HindIII
binds: [10]

B8: S100A9-1 (E9A) - 6 x His tag (expression product from mutant plasmid 2) (other)
chain: MTCKMSQLARNIETIINTFHQYSVKLGHPDTLNQGEFKELVRKDLQNFLKKENKNEKVIEHIMEDLDTNADKQLSFEEFIMLMARLTWASHEKMHEGDEGPGHHHKPGLGEGTPHHHHHH
notes: pET-28a, BamHI/HindIII; also called mutant S100A9
binds: [11]

B9: T7-tag - S100A9-1 - 6 x His tag (S100A9-1 chain co-expressed from plasmid 4 and plasmid 5) (other)
chain: MTCKMSQLARNIETIINTFHQYSVKLGHPDTLNQGEFKELVRKDLQNFLKKENKNEKVIEHIMEDLDTNADKQLSFEEFIMLMARLTWASHEKMHEGDEGPGHHHKPGLGEGTPHHHHHH
notes: Single chain of the co-expression constructs, written as a molecule of its own for the dimer formation results; also called mutant S100A9; not shown: T7-tag
binds: [12] | [13]
